Source: patent publication US12692310B2, “ASIC1 channel antagonist antibody” (ShanghaiTech University, priority 2019, dated 2026)

Experiments:
hASIC1a-ECD [1] = molecular target: T1, hASIC1a-ECD (Homo sapiens, UniProt P78348); experiment: Negative stain electron microscopy of hASIC1a-ECD/ASC06-Fab complex; conditions: negative staining EM
T1 construct: The ectodomain of hASIC1a (hASIC1a-ECD) with an N-terminal fused IL-2 tag and Flag tag; IL-2 tag (N); made in house; host or cells: HEK293F
T1 sequence (P78348 67-427 limits assumed): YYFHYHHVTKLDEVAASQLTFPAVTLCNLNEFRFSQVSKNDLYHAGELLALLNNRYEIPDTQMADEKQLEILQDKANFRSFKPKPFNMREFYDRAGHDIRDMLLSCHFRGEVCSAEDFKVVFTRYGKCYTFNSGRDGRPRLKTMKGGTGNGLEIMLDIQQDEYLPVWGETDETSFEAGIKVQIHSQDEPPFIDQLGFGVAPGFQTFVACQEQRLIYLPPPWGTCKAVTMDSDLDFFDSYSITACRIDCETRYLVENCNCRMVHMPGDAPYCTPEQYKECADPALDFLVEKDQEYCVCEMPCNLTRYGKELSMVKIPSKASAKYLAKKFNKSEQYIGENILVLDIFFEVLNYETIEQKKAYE
Method: (§1) Negative Stain Electron Microscopy (EM): (1) Sample Preparation and Data Collection. The antigen-binding fragment of ASC06-IgG1 (ASC06-Fab) was prepared by digesting ASC06-IgG1 with papain followed by protein A affinity purification and gel filtration. The ectodomain of hASIC1a (hASIC1a-ECD) with an N-terminal fused IL-2 tag and Flag tag was expressed in HEK293F cells and purified by anti-Flag M2 magnetic beads and gel filtration using PBS buffer, pH 7.4. The ASC06-Fab and hASIC1a-ECD were incubated at a molar ratio of 3:1 in PBS buffer, pH 7.4, overnight at 4° C. to form a tertiary complex. This complex was further isolated by gel filtration. […] The peak fractions containing this complex were collected and subjected to negative staining EM.
The EM samples were prepared by diluting the purified complex of hASIC1a-ECD and ASC06-Fab to 0.01 mg/mL. […]
All micrographs were recorded with a Tecnai G2 Spirit transmission electron microscope (FEI) equipped with an LaB6 cathode operated at 120 kV and a 4,000×4,000 Eagle CCD camera at a calibrated magnification of 67,000 times, resulting in a pixel size of 1.74 Å.
EMI mage Processing and 3D Reconstruction. […] All of the recorded micrographs were first decimated twofold (resulting in a pixel size of 3.48 Å). […]

hASIC1a-ECD [2] = molecular target: T1, hASIC1a-ECD; experiment: Gel filtration of hASIC1a-ECD and ASC06-Fab complex; assay type: binding; conditions: Superdex 200
Method: as §1
To understand the nature of binding of ASC06 to hASIC1a, a complex was formed by mixing hASIC1a-ECD and ASC06-Fab. The complex, hASIC1a-ECD and ASC06-Fab were resolved using gel filtration.

B1: ASC06-Fab: antigen-binding fragment of ASC06-IgG1 prepared by digesting ASC06-IgG1 with papain (antibody, V domains shown)
VH: QVQLQQSGGGLVQPGGSLRLSCAASGFTFSSYAMSWVRQAPGKGLEWVSAISGSGGSTYYADSVKGRFTISRDNSKNTLYLQMNSLRAEDTAVYYCAKDSFYGYSKGDWGQGTLVTVSS
VL: QSALTQPASVSGSPGQSITISCTGTSSDVGAYNYVSWYQQQPGKAPKLMIYGVSNRPSGVSNRFSGSKSGNAASLTISGLQAEDEADYYCSSYTSSSTYVFGTGTKLTVLG
**Q.** What does the source list for B1?
**A.** location of epitope (hASIC1a-ECD [1]): located on a surface formed by two hASIC1a-ECD subunits; complex formation with hASIC1a-ECD homotrimer (hASIC1a-ECD [2]): formed a stable complexes
